# Measurements from article PMC5701006.
# B1: human TGF-β type I receptor extracellular domain (receptor)
# chain: LQCFCHLCTKDNFTCVTDGLCFVSVTETTDKVIHNSMCIAEIDLIPRDRPFVCAPSSKTGSVTTTYCCNQDHCNKIELPTTVKSSPGLGPVEL
# Key:
# [1] = biological target: H. polygyrus TGF-β mimic (Hp-TGM), recombinant, amine-coupled to the chip (Heligmosomoides polygyrus); test: SPR; BIAcore X100; hTGF-β3 or Hp-TGM amine-coupled to a CM5 chip; two-fold dilutions of hTβRI (from 4 µM downwards) injected in HBS-EP at 30 µL/min, room temperature; global fit, simple 1:1 model
# [2] = biological target: H. polygyrus TGF-β mimic (Hp-TGM), recombinant, amine-coupled to the chip (Heligmosomoides polygyrus); test: SPR; as a1 but with 2 μM hTβRII in the HBS-EP running buffer and in the injected hTβRI samples
# [3] = biological target: human TGF-β3 on the chip with hTβRII extracellular domain bound (2 μM hTβRII in running buffer and samples) (human) (UniProt P37173); test: as above
binder,measurement,setting,value
B1,Kd,[1],351 nM
same,koff,[1],0.00386 s⁻¹
same,kon,[1],11000 M⁻¹ s⁻¹
same,Kd,[2],348 nM
same,koff,[2],0.00315 s⁻¹
same,kon,[2],9070 M⁻¹ s⁻¹
same,Kd,[3],367 nM
same,koff,[3],0.00179 s⁻¹
same,kon,[3],4890 M⁻¹ s⁻¹
